Three substances from paper PMC8373069 can be followed below.

Data set [1] addresses mouse MUTYH, hexa-histidine tag cleaved with thrombin (mouse) (UniProt Q99P21).
Data set [2] concerns the target T1, MUTYH (His tag cleaved) (mouse) (UniProt Q99P21).
T1 sequence: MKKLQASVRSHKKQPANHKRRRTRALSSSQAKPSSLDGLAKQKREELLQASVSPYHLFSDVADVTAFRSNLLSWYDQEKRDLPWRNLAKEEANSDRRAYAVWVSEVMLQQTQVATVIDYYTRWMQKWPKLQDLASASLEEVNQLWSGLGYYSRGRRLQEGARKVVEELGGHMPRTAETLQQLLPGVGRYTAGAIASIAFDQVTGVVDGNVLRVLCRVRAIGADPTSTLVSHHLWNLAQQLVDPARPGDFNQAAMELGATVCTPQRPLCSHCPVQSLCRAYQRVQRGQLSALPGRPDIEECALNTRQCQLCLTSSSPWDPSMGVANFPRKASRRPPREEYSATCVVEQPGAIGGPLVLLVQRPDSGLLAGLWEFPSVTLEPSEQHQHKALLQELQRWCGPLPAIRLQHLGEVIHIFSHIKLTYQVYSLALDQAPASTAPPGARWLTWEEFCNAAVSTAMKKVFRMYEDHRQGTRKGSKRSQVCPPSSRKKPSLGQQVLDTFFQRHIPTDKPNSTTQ
Kind of data set: EMSA. Particulars: 20 nM MUTYH, 8 nM DNA, no UV-DDB; strand 1 position 21 = 8-oxoG (written G); strand 2 position 17 = tetrahydrofuran abasic analogue (written N), opposite the 8-oxoG; EMSA: 20 mM HEPES pH 7.5, 150 mM NaCl, 5 mM DTT, 0.5 mg/ml BSA, 5% glycerol, RT; 5% native gel in 1/2x TBE at 4 C. A general note: Mobility shift assays separate free from complexed probe on a gel.

Another data set deals with His6-MUTYH (mouse). As to the kind of experiment: single-molecule DNA tightrope. Particulars: one tetrahydrofuran abasic site every 2 kb, EMSA: 20 mM HEPES pH 7.5, 150 mM NaCl, 5 mM DTT, 0.5 mg/ml BSA, 5% glycerol, RT, 5% native gel in 1/2x TBE at 4 C.

For “UV-DDB (DDB1–DDB2 heterodimer) (from UniProt Q16531 1-1140; Q92466 1-427) (complex)”, the MUTYH (20 nM) excision of A opposite 8-oxoG in 50 nM 37 bp duplex, with 50 nM UV-DDB against without, up to 4 h at 37°C in data set [1] lay in the range of 4 to 5 fold.
On to “CCGAGTCATTCCTGCAGCGAGTCCATGGGAGTCAAAT / ATTTGACTCCCATGGANTCGCTGCAGGAATGACTCGG [THF8-oxoG37]”, for which, in data set [2], the binding signal is > 80 % DNA bound.
For THF array (tightrope DNA), the binding signal (s (half-life on abasic sites)) was determined as 590 in the data set on His6-MUTYH (mouse) (with UV-DDB, which promotes MUTYH dissociation) and 8800 in the data set on His6-MUTYH (mouse) (without UV-DDB).
